Key:
4H3413-AA = target: T1, 4H3413-AA; assay: two-hybrid library CCmax; conditions: mean of both orientations;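 further: natural log of median RNA to DNA barcode read ratio; higher means stronger binding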
T1 chain: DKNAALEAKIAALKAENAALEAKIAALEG

4H3588-AA = target: T2, 4H3588-AA; assay: two-hybrid library CCmax; conditions: mean of both orientations;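 further: natural log of median RNA to DNA barcode read ratio; higher means stronger binding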
T2 chain: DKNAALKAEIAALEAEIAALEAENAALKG

4H697-AA = target: T3, 4H697-AA; assay: two-hybrid library CCmax; conditions: mean of both orientations;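 further: natural log of median RNA to DNA barcode read ratio; higher means stronger binding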
T3 chain: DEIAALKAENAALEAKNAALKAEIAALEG

4H384-AA = target: T4, 4H384-AA; assay: two-hybrid library CCmax; conditions: mean of both orientations;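 further: natural log of median RNA to DNA barcode read ratio; higher means stronger binding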
T4 chain: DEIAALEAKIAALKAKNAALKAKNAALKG

4H3697-AA = target: T5, 4H3697-AA; assay: two-hybrid library CCmax; conditions: mean of both orientations
T5 chain: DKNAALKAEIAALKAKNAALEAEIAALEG

4H32-AA = target: T6, 4H32-AA; assay: two-hybrid library CCmax; conditions: mean of both orientations
T6 chain: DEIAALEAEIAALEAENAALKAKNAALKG

4H340-AA = target: T7, 4H340-AA; assay: two-hybrid library CCmax; conditions: mean of both orientations
T7 chain: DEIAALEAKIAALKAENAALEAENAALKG

4H3606-AA = target: T8, 4H3606-AA; assay: two-hybrid library CCmax; conditions: mean of both orientations
T8 chain: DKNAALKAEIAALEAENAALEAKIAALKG

4H3378-AA = target: T9, 4H3378-AA; assay: two-hybrid library CCmax
T9 chain: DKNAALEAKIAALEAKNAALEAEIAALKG

4H3162-AA = target: T10, 4H3162-AA; assay: two-hybrid library CCmax; conditions: mean of both orientations
T10 chain: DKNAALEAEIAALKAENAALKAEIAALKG

4H3718-AA = target: T11, 4H3718-AA; assay: two-hybrid library CCmax; conditions: mean of both orientations
T11 chain: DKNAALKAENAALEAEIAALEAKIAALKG

4H2198-AA = target: T12, 4H2198-AA; assay: two-hybrid library CCmax
T12 chain: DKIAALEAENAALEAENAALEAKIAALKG

4H3631-AA = target: T13, 4H3631-AA; assay: two-hybrid library CCmax; conditions: mean of both orientations
T13 chain: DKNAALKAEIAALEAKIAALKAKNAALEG

4H2553-AA = target: T14, 4H2553-AA; assay: two-hybrid library CCmax; conditions: mean of both orientations
T14 chain: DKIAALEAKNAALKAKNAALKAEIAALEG

4H2611-AA = target: T15, 4H2611-AA; assay: two-hybrid library CCmax; conditions: mean of both orientations
T15 chain: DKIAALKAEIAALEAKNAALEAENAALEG

4H2907-AA = target: T16, 4H2907-AA; assay: two-hybrid library CCmax; conditions: mean of both orientations
T16 chain: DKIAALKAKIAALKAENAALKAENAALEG

4H982-AA = target: T17, 4H982-AA; assay: two-hybrid library CCmax; conditions: mean of both orientations
T17 chain: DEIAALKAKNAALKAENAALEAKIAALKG

4H2620-AA = target: T18, 4H2620-AA; assay: two-hybrid library CCmax; conditions: mean of both orientations
T18 chain: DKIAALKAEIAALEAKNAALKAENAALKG

4H2648-AA = target: T19, 4H2648-AA; assay: two-hybrid library CCmax; conditions: mean of both orientations
T19 chain: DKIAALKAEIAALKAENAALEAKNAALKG

4H3056-AA = target: T20, 4H3056-AA; assay: two-hybrid library CCmax; conditions: mean of both orientations
T20 chain: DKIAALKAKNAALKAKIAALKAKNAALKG

4H3865-AA = target: T21, 4H3865-AA; assay: two-hybrid library CCmax; conditions: mean of both orientations
T21 chain: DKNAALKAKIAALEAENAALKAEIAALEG

4H3133-AA = target: T22, 4H3133-AA; assay: two-hybrid library CCmax; conditions: mean of both orientations
T22 chain: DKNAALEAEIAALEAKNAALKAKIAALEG

APC4264-AA = target: T23, APC4264-AA; assay: two-hybrid library CCmax; conditions: mean of both orientations
T23 chain: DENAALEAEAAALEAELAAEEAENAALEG

APC7099-AA = target: T24, APC7099-AA; assay: two-hybrid library CCmax; conditions: mean of both orientations
T24 chain: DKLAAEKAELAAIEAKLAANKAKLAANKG

APC4011-AA = target: T25, APC4011-AA; assay: two-hybrid library CCmax; conditions: mean of both orientations
T25 chain: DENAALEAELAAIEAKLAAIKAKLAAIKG

APC2237-AA = target: T26, APC2237-AA; assay: two-hybrid library CCmax
T26 chain: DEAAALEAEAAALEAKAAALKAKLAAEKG

APC8910-AA = target: T27, APC8910-AA; assay: two-hybrid library CCmax; conditions: mean of both orientations
T27 chain: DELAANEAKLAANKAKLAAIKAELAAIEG

APC4436-AA = target: T28, APC4436-AA; assay: two-hybrid library CCmax; conditions: mean of both orientations
T28 chain: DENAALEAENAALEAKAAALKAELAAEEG

APC2405-AA = target: T29, APC2405-AA; assay: two-hybrid library CCmax; conditions: mean of both orientations
T29 chain: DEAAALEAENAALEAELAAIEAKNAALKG

APC3645-AA = target: T30, APC3645-AA; assay: two-hybrid library CCmax; conditions: mean of both orientations
T30 chain: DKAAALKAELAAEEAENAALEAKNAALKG

APC232-AA = target: T31, APC232-AA; assay: two-hybrid library CCmax; conditions: mean of both orientations
T31 chain: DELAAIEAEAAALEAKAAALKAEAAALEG

APC9096-AA = target: T32, APC9096-AA; assay: two-hybrid library CCmax; conditions: mean of both orientations
T32 chain: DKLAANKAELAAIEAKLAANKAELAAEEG

APC6108-AA = target: T33, APC6108-AA; assay: two-hybrid library CCmax; conditions: mean of both orientations
T33 chain: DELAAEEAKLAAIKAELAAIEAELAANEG

APC5383-AA = target: T34, APC5383-AA; assay: two-hybrid library CCmax; conditions: mean of both orientations
T34 chain: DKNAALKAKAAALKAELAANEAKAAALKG

APC9319-AA = target: T35, APC9319-AA; assay: two-hybrid library CCmax; conditions: mean of both orientations
T35 chain: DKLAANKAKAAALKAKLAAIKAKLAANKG

APC8191-AA = target: T36, APC8191-AA; assay: two-hybrid library CCmax; conditions: mean of both orientations
T36 chain: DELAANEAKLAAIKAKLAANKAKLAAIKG

4H477-bN = target: T37, 4H477-bN; assay: two-hybrid library CCNG1
T37 chain: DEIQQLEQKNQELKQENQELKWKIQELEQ

4H3057-bN = target: T38, 4H3057-bN; assay: two-hybrid library CCNG1
T38 chain: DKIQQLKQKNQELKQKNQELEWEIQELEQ

4H2915-bN = target: T39, 4H2915-bN; assay: two-hybrid library CCNG1
T39 chain: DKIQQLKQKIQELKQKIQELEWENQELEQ

4H492-bN = target: T40, 4H492-bN; assay: two-hybrid library CCNG1
T40 chain: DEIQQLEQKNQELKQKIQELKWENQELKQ

4H3277-bN = target: T41, 4H3277-bN; assay: two-hybrid library CCNG1
T41 chain: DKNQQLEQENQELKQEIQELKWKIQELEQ

4H348-bN = target: T42, 4H348-bN; assay: two-hybrid library CCNG1
T42 chain: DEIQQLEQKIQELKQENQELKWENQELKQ

4H319-bN = target: T43, 4H319-bN; assay: two-hybrid library CCNG1
T43 chain: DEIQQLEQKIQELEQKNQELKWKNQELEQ

4H741-bN = target: T44, 4H741-bN; assay: two-hybrid library CCNG1
T44 chain: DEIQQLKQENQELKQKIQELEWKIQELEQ

4H40-bN = target: T45, 4H40-bN; assay: two-hybrid library CCNG1
T45 chain: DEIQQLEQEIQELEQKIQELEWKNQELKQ

DKIAALEAENAALEAENAALEAKIAALKG [4H2198-AA] gave an interaction score (4H3413-AA) of -0.996, an interaction score (4H3588-AA) of -1.24 and an interaction score (4H697-AA) of 1. It also gave an interaction score (4H384-AA) of 1.32, an interaction score (4H3697-AA) of -1.16 and an interaction score (4H32-AA) of -0.333. It also gave an interaction score (4H340-AA) of -1.2, an interaction score (4H3606-AA) of -1.01 and an interaction score (4H3378-AA) of -1.47. It also gave an interaction score (4H3162-AA) of -1.38, an interaction score (4H3718-AA) of -0.339 and an interaction score (4H2198-AA) of 0.363. The interaction score (4H3631-AA) was -1.38, the interaction score (4H2553-AA) was 1.96 and the interaction score (4H2611-AA) was -1.63. The interaction score (4H2907-AA) was -0.303, the interaction score (4H982-AA) was 1.67 and the interaction score (4H2620-AA) was -0.832. The interaction score (4H2648-AA) was -1.34, the interaction score (4H3056-AA) was -0.0509 and the interaction score (4H3865-AA) was -0.834. For the same binder, the interaction score (4H3133-AA) was -0.581.

Binder DEAAALEAEAAALEAKAAALKAKLAAEKG [APC2237-AA] has an interaction score (APC4264-AA) of -1.65, an interaction score (APC7099-AA) of -1.59 and an interaction score (APC4011-AA) of 1.54. The interaction score (APC2237-AA) was -1.33, the interaction score (APC8910-AA) was -1.72 and the interaction score (APC4436-AA) was -2.06. The interaction score (APC2405-AA) was -1.48, the interaction score (APC3645-AA) was -1.41 and the interaction score (APC232-AA) was -1.19. The interaction score (APC9096-AA) was -1.63, the interaction score (APC6108-AA) was -1.71 and the interaction score (APC5383-AA) was -1.52. The interaction score (APC9319-AA) was -2.27 and the interaction score (APC8191-AA) was -1.41.

Binder DKIQQLKQKIQELKQKIQELEWENQELEQ [4H2915-bN] has an interaction score (4H477-bN) of -2.75, an interaction score (4H3057-bN) of -0.568 and an interaction score (4H2915-bN) of 0.918. For the same binder, the interaction score (4H492-bN) was -1.44, the interaction score (4H3277-bN) was -1.62 and the interaction score (4H348-bN) was -0.904. The interaction score (4H319-bN) was -3.47, the interaction score (4H741-bN) was -1.16 and the interaction score (4H40-bN) was 1.52.

— publication PMC10397247
